The data set concerns the molecule itself. Description: native ESI FT-ICR mass spectrometry, 40 uM in 10 mM ammonium acetate (self-association). How it is done: The mass spectrometric experiments were performed with a 12T solariX XR mass spectrometer (Bruker Daltonics, Billerica, Mass., USA), equipped with an Apollo II ion funnel electrospray source. Before a mass spectrometric analysis, the protein sample was exchanged into an ESI-MS compatible ammonium acetate buffer (10 mM, pH 6.9) by using disposable PD-10 desalting columns (GE Healthcare). For mass spectrometric measurements in denaturing solution conditions, protein sample was diluted to 0.2 μM with acetonitrile/water/acetic acid solution. The protein solution was directly infused into the ion source by a syringe pump with a flow rate of […]. The temperature of the drying gas was 200° C. and the pressure of the nebulizing gas was 1.0 bar. Mass spectra were acquired in the positive ion mode over the m/z range of 800-3000 with 1-Mword time-domain transients and 0.05 sec ion accumulation. […] Desalted protein samples were usually measured at a concentration of 40 μM in 10 mM ammonium acetate buffer. Typically, 100 co-added 256-kword time-domain transients were recorded and processed to 512-kword data prior to fast Fourier transform and frequency to mass conversion. The wild-type Equ c 1 allergen and the Equ c 1 mutants were measured using the same instrumental parameters, in order to avoid any bias between the protein samples. […]

We go through one protein from US20200345839A1 (DESENTUM, published 2020).

B1: recombinant wild-type Equ c 1 allergen (other)
chain: QQEENSDVAIRNFDISKISGEWYSIFLASDVKEKIEENGSMRVFVDVIRALDNSSLYAEYQTKVNGECTEFPMVFDKTEEDGVYSLNYDGYNVFRISEFENDEHIILYLVNFDKDRPFQLFEFYAREPDVSPEIKEEFVKIVQKRGIVKENIIDLTKIDRCFQLRGNGVAQA
notes: Reported to exist mainly as a dimer at 40 uM; also called rEqu c 1 wt; wt rEqu c 1
As to B1, the binding result was “binds”.
